Measurements from patent US20050026219A1, “Process for label-free measurement of modified substrate” (Boehringer Ingelheim Pharma GmbH & Co. KG, priority 2001, published 2005).
Where “and” joins values, the source holds several entries; their conditions need not be identical. Equal entries are not always repeated.

What was measured:
[1] = biological target: Poly-(Glu, Tyr) 4:1 (MW: 39100, Messrs. Sigma; CAS number 97105-00-5); test: RIfS solution competition: PGT 10 ug/50 ul, EGF-RK 1 Unit/50 ul, no ATP; free antibody read on phosphotyrosine sensor
[2] = biological target: phosphorylated Poly-(Glu, Tyr) 4:1 (after reaction with EGF-RK and ATP); test: RIfS solution competition: PGT 10 ug/50 ul, EGF-RK 1 Unit/50 ul, ATP, no inhibitor (staurosporin series); phosphotyrosine-diamino-PEG 2000 sensor
[3] = biological target: Poly-(Glu, Tyr) 4:1 (MW: 39100, Messrs. Sigma; CAS number 97105-00-5); test: RIfS solution competition: antibody incubated with mixture (PGT 10 ug/50 ul, EGF-RK 0.1 Unit/50 ul, EGF 0.5 ug/50 ul, no ATP), free antibody read on phosphotyrosine-diamino-PEG 2000 sensor; high value = antibody not taken up by substrate
[4] = biological target: phosphorylated Poly-(Glu, Tyr) 4:1 (after reaction with EGF-RK and ATP); test: RIfS solution competition: PGT 10 ug/50 ul, EGF-RK 1 Unit/50 ul, ATP, no inhibitor (erbstatin analogue series); phosphotyrosine-diamino-PEG 2000 sensor
[5] = biological target: oligopeptide Ac-Ile-Tyr-Gly-Glu-Phe-NH2 "M-2165" (Messrs. Bachem, MW 668.8); test: RIfS solution competition: M-2165 10 ug/50 ul, p60c-src-kinase 4 Units/50 ul, no ATP; free antibody read on phosphotyrosine-aminodextrane (AMD) sensor
[6] = biological target: Poly-(Glu, Tyr) 4:1 (MW: 39100, Messrs. Sigma; CAS number 97105-00-5); test: RIfS solution competition: PGT 10 ug/50 ul, EGF-RK 1 Unit/50 ul, no ATP, no inhibitor (control of the staurosporin series); phosphotyrosine-diamino-PEG 2000 sensor
[7] = biological target: phosphorylated Raytide EL (after reaction with EGF-RK and ATP); test: RIfS solution competition: Raytide EL 2 ug/50 ul, EGF-RK 0.5 Units/50 ul, ATP; free antibody read on phosphotyrosine-diamino-PEG 2000 sensor; lower value = antibody taken up by phosphorylated substrate
[8] = biological target: Poly-(Glu, Tyr) 4:1 (MW: 39100, Messrs. Sigma; CAS number 97105-00-5); test: RIfS solution competition; mean of the two mixtures without ATP of Table 10
[9] = biological target: phosphorylated Poly-(Glu, Tyr) 4:1 (after reaction with EGF-RK and ATP); test: RIfS solution competition: antibody incubated with mixture (PGT 10 ug/50 ul, EGF-RK 0.1 Unit/50 ul, EGF 0.5 ug/50 ul, ATP), free antibody read on phosphotyrosine-diamino-PEG 2000 sensor; lower value = antibody taken up by phosphorylated substrate
[10] = biological target: phosphorylated Poly-(Glu, Tyr) 4:1 (after reaction with EGF-RK and ATP); test: RIfS solution competition; mean of the six complete mixtures of Table 10
[11] = biological target: oligopeptide Ac-Ile-Tyr-Gly-Glu-Phe-NH2 "M-2165" (Messrs. Bachem, MW 668.8); test: RIfS solution competition: M-2165 10 ug/50 ul, p60c-src-kinase 2 Units/50 ul, no ATP; free antibody read on phosphotyrosine-diamino-PEG 2000 sensor
[12] = biological target: phosphorylated Poly-(Glu, Tyr) 4:1 (after reaction with EGF-RK and ATP); test: RIfS solution competition: PGT 10 ug/50 ul, EGF-RK 1 Unit/50 ul, ATP, no inhibitor (Tyrphostin 47 series); phosphotyrosine-diamino-PEG 2000 sensor
[13] = biological target: Poly-(Glu, Tyr) 4:1 (MW: 39100, Messrs. Sigma; CAS number 97105-00-5); test: RIfS solution competition: PGT 10 ug/50 ul, EGF-RK 2 Units/50 ul, no ATP; free antibody read on phosphotyrosine-diamino-PEG 2000 sensor
[14] = biological target: Poly-(Glu, Tyr) 4:1 (MW: 39100, Messrs. Sigma; CAS number 97105-00-5); test: RIfS solution competition: PGT 10 ug/50 ul, EGF-RK 1 Unit/50 ul, no ATP, no inhibitor (control of the genistein series); phosphotyrosine-diamino-PEG 2000 sensor
[15] = biological target: phosphorylated Poly-(Glu, Tyr) 4:1 (after reaction with EGF-RK and ATP); test: RIfS solution competition: PGT 10 ug/50 ul, EGF-RK 2 Units/50 ul, ATP; free antibody read on phosphotyrosine-diamino-PEG 2000 sensor; lower value = antibody taken up by phosphorylated substrate
[16] = biological target: Poly-(Glu, Tyr) 4:1 (MW: 39100, Messrs. Sigma; CAS number 97105-00-5); test: RIfS solution competition: PGT 10 ug/50 ul, EGF-RK 1 Unit/50 ul, no ATP, no inhibitor (control of the Tyrphostin 47 series); phosphotyrosine-diamino-PEG 2000 sensor
[17] = biological target: phosphorylated Poly-(Glu, Tyr) 4:1 (after reaction with EGF-RK and ATP); test: RIfS solution competition: PGT 10 ug/50 ul, EGF-RK 1 Unit/50 ul, ATP, no inhibitor (genistein series); phosphotyrosine-diamino-PEG 2000 sensor
[18] = biological target: Raytide EL (protein-tyrosine-kinase substrate, MW 2476 Dalton, Messrs. Calbiochem); test: RIfS solution competition: Raytide EL 2 ug/50 ul, EGF-RK 0.5 Units/50 ul, no ATP; free antibody read on phosphotyrosine-diamino-PEG 2000 sensor

Optical layer thickness in nm [1]: 2.06 nm and 2.27 nm
Optical layer thickness in nm [2]: 0.233 nm
Optical layer thickness in nm [3]: 2.59 nm
Optical layer thickness in nm [4]: 0.852 nm
Optical layer thickness in nm [5]: 3.81 nm
Optical layer thickness in nm [6]: 2.99 nm
Optical layer thickness in nm [7]: 1.83 nm
optical layer thickness in nm (mean value) [8]: 2.16 nm
Optical layer thickness in nm [9]: 2.04 nm
optical layer thickness in nm (mean value) [10]: 0.19 nm
Optical layer thickness in nm [11]: 3.2 nm
Optical layer thickness in nm [12]: 0.613 nm
Optical layer thickness in nm [13]: 2.65 nm
Optical layer thickness in nm [14]: 2.4 nm
Optical layer thickness in nm [15]: 0.225 nm
Optical layer thickness in nm [16]: 2.3 nm
Optical layer thickness in nm [17]: 0.446 nm
Optical layer thickness in nm [18]: 3.11 nm
Substance: monoclonal murine antibody IgG1 from Ascites: Anti-PhosphoTyrosine (Clone number: PT-66, Messrs. Sigma)
